Experiments:
Assay in all cases: cell-based or functional assay
B.SF162 envelope (HIV-1) = molecular target: B.SF162 envelope (HIV-1)
C.TV-1 envelope (HIV-1) = molecular target: C.TV-1 envelope (HIV-1)
[1] = molecular target: B.BG1168 envelope (HIV-1)
[2] = molecular target: CAP206.1.B5 envelope (HIV-1)
[3] = molecular target: ZM197M.PB7 envelope (HIV-1)
[4] = molecular target: Du156.12 envelope (HIV-1)
Du422.1 envelope (HIV-1) = molecular target: Du422.1 envelope (HIV-1)
[5] = molecular target: QH0692.42 envelope (HIV-1)
TRO.11 envelope (HIV-1) = molecular target: TRO.11 envelope (HIV-1)
[6] = molecular target: SC422661.8 envelope (HIV-1)
[7] = molecular target: COT6.15 envelope W666A (HIV-1)
[8] = molecular target: COT6.15 envelope W672A (HIV-1)
[9] = molecular target: COT6.15 envelope D674N (HIV-1)
[10] = molecular target: COT6.15 envelope D674S (HIV-1)
[11] = molecular target: COT6.15 envelope I675A (HIV-1)
[12] = molecular target: COT6.15 envelope W680A (HIV-1)
[13] = molecular target: COT6.15 envelope D664A (HIV-1)
[14] = molecular target: COT6.15 envelope L669A (HIV-1)
[15] = molecular target: COT6.15 envelope F673A (HIV-1)
[16] = molecular target: COT6.15 envelope S665A (HIV-1)
[17] = molecular target: COT6.15 envelope L663A (HIV-1)
[18] = molecular target: COT6.15 envelope K667A (HIV-1)
[19] = molecular target: COT6.15 envelope W678A (HIV-1)
[20] = molecular target: COT6.15 envelope N668A (HIV-1)
[21] = molecular target: COT6.15 envelope K677A (HIV-1)
[22] = molecular target: COT6.15 envelope S671A (HIV-1)
[23] = molecular target: COT6.15 envelope, wild type (HIV-1)
[24] = molecular target: COT6.15 envelope T676A (HIV-1)
[25] = molecular target: COT6.15 envelope W670A (HIV-1)
[26] = molecular target: COT6.15 envelope D674A (HIV-1)
[27] = molecular target: COT6.15 envelope A662G (HIV-1)
[28] = molecular target: COT6.15 envelope L679A (HIV-1)

Question: What does the source list for recombinant 2F5 IgG antibody?
Answer: 50% neutralization level (B.SF162 envelope (HIV-1)): 0.3 µg/mL; 50% neutralization level (C.TV-1 envelope (HIV-1)): 34.5 µg/mL; 50% neutralization level [1]: 1.17 µg/mL

Question: Which 50% neutralization level (B.SF162 envelope (HIV-1)) does the source give for mAb 2F5 (Polymun Scientific) (antibody) here?
Answer: 0.1 µg/mL

Question: And the IC50 in TZM-bl cells [2]?
Answer: > 25000 µg/mL

Question: And the IC50 in TZM-bl/FcγRI cells [2]?
Answer: > 25000 µg/mL

Question: What about the IC50 in TZM-bl cells [3] of the same substance?
Answer: > 25000 µg/mL

Question: And the IC50 in TZM-bl/FcγRI cells [3]?
Answer: 60 µg/mL

Question: And the 50% neutralization level (C.TV-1 envelope (HIV-1))?
Answer: 10.9 µg/mL

Question: And the 50% neutralization level [1]?
Answer: 0.32 µg/mL

Question: What about the IC50 in TZM-bl cells [4] of the same substance?
Answer: > 25000 µg/mL

Question: And the IC50 in TZM-bl/FcγRI cells [4]?
Answer: > 25000 µg/mL

Question: What about the IC50 in TZM-bl cells (Du422.1 envelope (HIV-1)) of the same substance?
Answer: > 25000 µg/mL

Question: What about the IC50 in TZM-bl/FcγRI cells (Du422.1 envelope (HIV-1)) of the same substance?
Answer: > 25000 µg/mL

Question: What about the IC50 in TZM-bl cells [5] of the same substance?
Answer: 1810 µg/mL

Question: And the IC50 in TZM-bl/FcγRI cells [5]?
Answer: < 10 µg/mL

Question: And the IC50 in TZM-bl cells (TRO.11 envelope (HIV-1))?
Answer: > 25000 µg/mL

Question: What about the IC50 in TZM-bl/FcγRI cells [6] of the same substance?
Answer: < 10 µg/mL

Question: mAb Z13e1 (antibody) was tested. Which IC50 in TZM-bl cells [3] did it give?
Answer: 30

Question: And the IC50 in TZM-bl cells [4]?
Answer: 4700 µg/mL

Question: What about the IC50 in TZM-bl cells [5] of the same substance?
Answer: 46000 µg/mL

Question: What about the IC50 in TZM-bl cells (TRO.11 envelope (HIV-1)) of the same substance?
Answer: 13300 µg/mL

Question: With mAb 4E10 (antibody) as the substance, how does the IC50, pseudovirus neutralization [7] read?
Answer: 0.51 µg/mL

Question: And the Ratio (mutant IC50)/(wild-type IC50) [7]?
Answer: 0.6

Question: What about the IC50 in TZM-bl cells [2] of the same substance?
Answer: 0.1

Question: And the IC50 in TZM-bl/FcγRI cells [2]?
Answer: < 10 µg/mL

Question: And the IC50 in TZM-bl cells [3]?
Answer: 1100 µg/mL

Question: What about the IC50 in TZM-bl/FcγRI cells [3] of the same substance?
Answer: < 10 µg/mL

Question: What about the IC50, pseudovirus neutralization [8] of the same substance?
Answer: > 25 µg/mL

Question: And the Ratio (mutant IC50)/(wild-type IC50) [8]?
Answer: > 25

Question: And the IC50, pseudovirus neutralization [9]?
Answer: 0.33 µg/mL

Question: What about the Ratio (mutant IC50)/(wild-type IC50) [9] of the same substance?
Answer: 0.4

Question: And the IC50, pseudovirus neutralization [10]?
Answer: 2.49 µg/mL

Question: What about the Ratio (mutant IC50)/(wild-type IC50) [10] of the same substance?
Answer: 2.8

Question: And the IC50, pseudovirus neutralization [11]?
Answer: 0.04 µg/mL

Question: And the Ratio (mutant IC50)/(wild-type IC50) [11]?
Answer: 0

Question: What about the IC50, pseudovirus neutralization [12] of the same substance?
Answer: 10.9 µg/mL

Question: And the Ratio (mutant IC50)/(wild-type IC50) [12]?
Answer: 12.1

Question: And the IC50, pseudovirus neutralization [13]?
Answer: 0.77 µg/mL

Question: And the Ratio (mutant IC50)/(wild-type IC50) [13]?
Answer: 0.9

Question: And the IC50, pseudovirus neutralization [14]?
Answer: 0.05 µg/mL

Question: What about the Ratio (mutant IC50)/(wild-type IC50) [14] of the same substance?
Answer: 0.1

Question: What about the IC50 in TZM-bl cells [4] of the same substance?
Answer: 200 µg/mL

Question: And the IC50 in TZM-bl/FcγRI cells [4]?
Answer: < 10 µg/mL

Question: What about the IC50, pseudovirus neutralization [15] of the same substance?
Answer: > 25 µg/mL

Question: What about the Ratio (mutant IC50)/(wild-type IC50) [15] of the same substance?
Answer: > 25

Question: What about the IC50, pseudovirus neutralization [16] of the same substance?
Answer: 0.14 µg/mL

Question: What about the Ratio (mutant IC50)/(wild-type IC50) [16] of the same substance?
Answer: 0.2

Question: And the IC50 in TZM-bl cells (Du422.1 envelope (HIV-1))?
Answer: 300 µg/mL

Question: What about the IC50 in TZM-bl/FcγRI cells (Du422.1 envelope (HIV-1)) of the same substance?
Answer: < 10 µg/mL

Question: What about the IC50 in TZM-bl cells [5] of the same substance?
Answer: 6500 µg/mL

Question: What about the IC50 in TZM-bl/FcγRI cells [5] of the same substance?
Answer: 110 µg/mL

Question: And the IC50, pseudovirus neutralization [17]?
Answer: 0.02 µg/mL

Question: What about the Ratio (mutant IC50)/(wild-type IC50) [17] of the same substance?
Answer: 0

Question: And the IC50 in TZM-bl cells (TRO.11 envelope (HIV-1))?
Answer: 300 µg/mL

Question: What about the IC50 in TZM-bl/FcγRI cells [6] of the same substance?
Answer: < 10 µg/mL

Question: And the IC50, pseudovirus neutralization [18]?
Answer: 0.05 µg/mL

Question: What about the Ratio (mutant IC50)/(wild-type IC50) [18] of the same substance?
Answer: 0.1

Question: And the IC50, pseudovirus neutralization [19]?
Answer: 0.05 µg/mL

Question: And the Ratio (mutant IC50)/(wild-type IC50) [19]?
Answer: 0.1

Question: What about the IC50, pseudovirus neutralization [20] of the same substance?
Answer: 1.3 µg/mL

Question: What about the Ratio (mutant IC50)/(wild-type IC50) [20] of the same substance?
Answer: 1.4

Question: And the IC50, pseudovirus neutralization [21]?
Answer: 0.05 µg/mL

Question: What about the Ratio (mutant IC50)/(wild-type IC50) [21] of the same substance?
Answer: 0.1

Question: And the IC50, pseudovirus neutralization [22]?
Answer: 0.04 µg/mL

Question: And the Ratio (mutant IC50)/(wild-type IC50) [22]?
Answer: 0

Question: And the IC50, pseudovirus neutralization [23]?
Answer: 0.9 µg/mL

Question: And the IC50, pseudovirus neutralization [24]?
Answer: 21.8 µg/mL

Question: And the Ratio (mutant IC50)/(wild-type IC50) [24]?
Answer: 24.2

Question: And the IC50, pseudovirus neutralization [25]?
Answer: 0.11 µg/mL

Question: What about the Ratio (mutant IC50)/(wild-type IC50) [25] of the same substance?
Answer: 0.1

Question: And the IC50, pseudovirus neutralization [26]?
Answer: 1.4 µg/mL

Question: What about the Ratio (mutant IC50)/(wild-type IC50) [26] of the same substance?
Answer: 1.6

Question: And the IC50, pseudovirus neutralization [27]?
Answer: 0.12 µg/mL

Question: What about the Ratio (mutant IC50)/(wild-type IC50) [27] of the same substance?
Answer: 0.1

Question: And the IC50, pseudovirus neutralization [28]?
Answer: 0.09 µg/mL

Question: And the Ratio (mutant IC50)/(wild-type IC50) [28]?
Answer: 0.1

— patent publication US20120269821A1
